Here are results for 1 protein from paper PMC11970713 (The FEBS journal, 2024).

The series concerns the molecule itself. The experiment in a line: native gel or EMSA.

B1: Full length wild-type LpCopA (copper-transporting P1B-1-ATPase from Legionella pneumophila, Lpg1024) (natural protein)
chain: not shown
Take B1: the “stoichiometry N” value turned out to be 2.
